Data reported in patent US6544767B1, “Cathespin O2 protease” (Axys Pharmaceuticals, Inc., priority 1994, dated 2003).
Where two headings read alike, the source gives them in different places.

B1: trypsin: bovine trypsin (Sigma) (protein, UniProt P00760 24-246, looked up)
Serine protease 1: IVGGYTCGANTVPYQVSLNSGYHFCGGSLINSQWVVSAAHCYKSGIQVRLGEDNINVVEGNEQFISASKSIVHPSYNSNTLNNDIMLIKLKSAASLNSRVASISLPTSCASAGTQCLISGWGNTKSSGTSYPDVLKCLKAPILSDSSCKSAYPGQITSNMFCAGYLEGGKDSCQGDSGGPVVCSGKLQGIVSWGSGCAQKNKPGVYTKVCNYVSWIKQTIASN
B2: papain: cysteine protease, literature comparison (protein, UniProt P00784 134-345, looked up)
Papain: IPEYVDWRQKGAVTPVKNQGSCGSCWAFSAVVTIEGIIKIRTGNLNEYSEQELLDCDRRSYGCNGGYPWSALQLVAQYGIHYRNTYPYEGVQRYCRSREKGPYAAKTDGVRQVQPYNEGALLYSIANQPVSVVLEAAGKDFQLYRGGIFVGPCGNKVDHAVAAVGYGPNYILIKNSWGTGWGENGYIRIKRGTGNSYGVCGLYTSSFYPVKN
B3: cathepsin O2: recombinant human cysteine protease of the papain family, mature enzyme expressed in Sf9 cells (protein)
chain: APDSVDYRKKGYVTPVKNQGQCGSCWAFSSVGALEGQLKKKTGKLLNLSPQNLVDCVSENDGCGGGYMTNAFQYVQKNRGIDSEDAYPYVGQEESCMYNPTGKAAKCRGYREIPEGNEKALKRAVARVGPVSVAIDASLTSFQFYSKGVYYDESCNSDNLNHAVLAVGYGIQKGNKHWIIKNSWGENWGNKGYILMARNKNNACGIANLASFPKM
B4: cathepsin S: recombinant human cathepsin S expressed using the baculovirus expression system (protein)
chain: LPDSVDWREKGCVTEVKYQGSCGACWAFSAVGALEAQLKLKTGKLVSLSAQNLVDCSTEKYGNKGCNGGFMTTAFQYIIDNKGIDSDASYPYKAMDQKCQYDSKYRAATCSKYTELPYGREVDLKEAVANKGPVSVGVDARHPSFFLYRSGVYYEPSCTQNVNHGVLVVGYGDLNGKEYWLVKNSWGHNFGEEGYIRMARNKGNHCGIASFPSYPEI

What was measured:
[1] = system: Soluble calf skin Type I collagen; assay: Collagenase activity, SDS-PAGE; assay type: biochemical
Method: (§1) FIGS. 9A and 9B depict SDS PAGE of type I collagen (soluble calf skin collagen) after digestion with recombinant human cathepsin O2 and L and bovine trypsin. FIG. 9A: Collagenase activity: Digestion of soluble calf skin collagen at 28° C. and at pH 4.0, 5.0, 5.5, 6.0, 6.5, 7.0 by human cathepsins O2, S and L (each 50 nM) for 12 hours. The reaction was stopped by addition of 10 μM E-64. Untreated soluble collagen was used as standard (S). FIG. 9B: Gelatinase activity: Digestion of denatured soluble calf skin collagen (10 min heated at 70° C.) at 28° C. and at pH 4.0, 5.0, 5.5, 6.0, 6.5, 7.0 by human cathepsin O2 (0.1 nM), cathepsin L (0.2 nM) and human cathepsin S (1 nM). Molecular mass standards are indicated in the left lane.
(§2) Soluble calf skin Type I collagen was diluted to 0.4 mg/ml into 100 mM-sodium acetate buffer, pH 4.5, 5.0, 5.5, in 100 mM-potassium phosphate buffer, pH 6.0, 6.5 and 100 mM-Tris/HCl, pH 7.0 containing 2 mM-dithiotreitol/2 mM-EDTA. Human cathepsins O2, S and L and bovine trypsin (Sigma) were incubated at concentrations of 100 nM enzyme concentration for 10 hours at 28° C. To measure the gelatinase activity of cathepsins O2 and S, Type I collagen was heated for 10 min at 70° C. prior to incubation with the proteases. In the presence of 1 nM proteases the reaction mix was incubated for 30 min at 28° C. The samples were subjected to SDS polyacrylamide electrophoresis using 4-20% Tris-glycine gels (Novex, San Diego, Calif.).

[2] = from literature; cited from earlier work
[3] = pH activity profile; assay type: biochemical; details: for pH optimum: calculated from (pK1 + pK2)/2
Method: Initial rates of substrate hydrolysis were monitored as described above. The pH activity profile of human cathepsin O2 was obtained at 1 μM substrate (Z-FR-MCA) concentration ([S]<<Km where the initial rate vo is directly proportional to the kcat/Km value). The following buffers were used for the pH activity profile: 100 mM sodium citrate (pH 2.8-5.6) and 100 mM sodium phosphate (pH 5.8-8.0). All buffers contained 1 mM EDTA and 0.4 M NaCl to minimize the variation in ionic strength. A three protonation model (Khouri et al., Biochem. 30:8929-8936 (1991)) was used for least square regression analysis of the pH activity data. The data were fitted to the following equation.
(kcat/Km)obs=(kcat/Km)/([H^+]/K1+1+K2/[H^+])

[4] = pH stability at 37° C.; assay type: physicochemical
Method: The residual activity was measured in time intervals using the above described fluorimetric substrate assay. The pH stability of cathepsins O2, S and L was studied at three different pH values. Recombinant human cathepsins O2, S and L were incubated at 37° C. in 100 mM sodium acetate buffer, pH 5.5, in 100 mM potassium phosphate buffer, pH 6.5 and in 100 mM Tris/HCl, pH 7.5 containing 5 mM dithiothreitol and 2.5 mM EDTA. Incubating for 0.5, 1, 2 and 4 hours, the activity remaining was determined using 5 μM Z-FR-MCA for cathepsin O2 (100 mM potassium phosphate buffer, pH 6.5) and cathepsin L (100 mM sodium acetate buffer, pH 5.5) and 5 μM Z-VVR-MCA for cathepsin S (100 mM potassium phosphate buffer, pH 6.5).

[5] = system: [^3H] elastin; assay: Elastin degradation assay; assay type: biochemical
Method: Elastin (2 mg) was incubated in I ml buffer containing 2.5 mM dithiothreitol, 2.5 mM EDTA and 0.05% Triton X-100 for the cathepsin O2, S and L assays. Aliquots were withdrawn after 10, 20, 30, 50, 90, 120 and 180 min, centrifuged for 1 min at 14,000×g and counted in a 24-well plate containing scintillation fluid with Liquid Scintillation counter (1450 Microbeta Plus, Wallac/Pharmacia). Concentrations of human cathepsins O2, S and L and bovine elastase in the elastin degradation assay were 65 nM, 28 nM, 80 nM and 80 nM, respectively. To determine the pH effect on protease activity the digests were carried out at pH 4.5 and 5.5 (100 mM sodium acetate, 2.5 mM each dithiothreitol and EDTA, 0.05% Triton X-100), and at pH 7.0 (100 mM Tris/HCl, 2.5 mM each of dithiothreitol and EDTA, 0.05% Triton X-100). Pancreatic bovine elastase (Boehringer, Mannheim, Ind.) was assayed under the same conditions except that neither dithiothreitol nor EDTA was added to the incubation mixture.

[6] = system: denatured soluble calf skin collagen; assay: Gelatinase activity, SDS-PAGE; assay type: biochemical
Method: as §1, §2

Molecule	collagenolytic activity [1]	pK1 of pH activity profile [2]	pK2 of pH activity profile [2]	width of the pH profile [2]	pH optimum [3]	Residual activity (%) ([4]; pH 5.5, 37° C., 0.5 hr)	Residual activity (%) ([4]; pH 5.5, 37° C., 1 hr)	Residual activity (%) ([4]; pH 5.5, 37° C., 2 hr)	Residual activity (%) ([4]; pH 5.5, 37° C., 4 hr)	Residual activity (%) ([4]; pH 6.5, 37° C., 0.5 hr)	Residual activity (%) ([4]; pH 6.5, 37° C., 2 hr)	Residual activity (%) ([4]; pH 6.5, 37° C., 4 hr)	Residual activity (%) ([4]; pH 7.5, 37° C., 0.5 hr)	Residual activity (%) ([4]; pH 7.5, 37° C., 1 hr)	Residual activity (%) ([4]; pH 7.5, 37° C., 2 hr)	Residual activity (%) ([4]; pH 7.5, 37° C., 4 hr)	elastinolytic activity ([5]; pH 4.5) [mg/min/μmol enzyme]	elastinolytic activity ([5]; pH 5.5) [mg/min/μmol enzyme]	elastinolytic activity ([5]; pH 7.0) [mg/min/μmol enzyme]	gelatinase activity [6]	other results
B1	No degradation																				
B2		4.54 ± 0.29	8.45 ± 0.02	3.91	6.5																pK1′ of pH activity profile [2]: 3.58 ± 0.29
B3					6.1	91	88	70	52	85	22	15	11	0	0	0	245	286	170	powerful gelatinase activity	pK1′ of pH activity profile [3]: 3.43 ± 0.05; width of the pH profile [3]: 4.15; pK1 of pH activity profile ([3]; listed as Human cathepsin O2): 4.0; pK2 of pH activity profile ([3]; listed as Human cathepsin O2): 8.13; pK1 of pH activity profile ([3]; listed as human cathepsin O2): 4.00 ± 0.02; pK2 of pH activity profile ([3]; listed as human cathepsin O2): 8.13 ± 0.01; pH of maximal elastinolytic activity [5]: 5.5; elastinolytic activity relative to pancreatic elastase ([5]; neutral pH): 2.4 times; elastinolytic activity relative to cathepsin L ([5]; pH 5.5): ~9 times; degradation of Type I collagen ([1]; between pH 5.0 and 6.0 at 28° C.): extensively degraded; degradation of Type I collagen ([1]; pH 4.5 and pH 7.0, 28° C.): much less pronounced; time to total degradation of denatured collagen ([6]; 0.1 nM enzyme, pH range of 5.0 to 7.0): ≤ 30 min
B4	very weak collagenolytic activity	4.49 ± 0.03	7.82 ± 0.03	3.35	6.1	100	95	92	83	100	94	71	91	72	61	60	146	102	55	significant weaker activity than the cathepsins O2 and L	Residual activity (%) ([4]; pH 6.5, 37° C., 1 hr): 100%
